Target: GFP-BLM (full-length Bloom helicase, GFP fusion protein) (human) (UniProt P54132)
Test: photobleaching step counting (single-molecule TIRFM, DNA curtain); GFP-tagged BLM (0.2 nM injected) bound to the free ends (30-nt 3' ssDNA overhang) of lambda-DNA tethered to a lipid bilayer; number of GFP photobleaching steps per end-bound complex; BLM buffer (20 mM Tris-HCl pH 7.5, 1 mM MgCl2, 2 mM ATP, 1 mM DTT, 0.2 mg/ml BSA), 37 °C; oligomer counted on DNA ends

- stoichiometry N: 1 to 6 monomers
- stoichiometry N (BLM monomers per DNA end): 3.6
Substance: GFP-BLM (full-length Bloom helicase, GFP fusion protein), P54132 1-1417 (enzyme; other documents disagree on this pair)

From paper PMC9042962
